Binding result, Kd and kon data for three molecules are collected here from patent publication US20180273613A1 (SAMSUNG ELECTRONICS, published 2018).

Usually Kd stands for the concentration at which binding is half-saturated. As a reminder, the kon is the second-order rate constant of association.

The target of assay [1] is T1, BSA (bovine, UniProt P02769).
T1 construct: commercial preparation, not further described; also called Bovine serum albumin; BSA (Sigma)
Kind of assay: Complex ELISA: BSA coated (4 µg/ml), FLAG-Ang2 0.25 µg/ml and 10D6 2 µg/ml, Ang2 on the plate shown indirectly by bound 10D6 (anti-mouse IgG-HRP, OD450). Here is the method:
(§1) A 96-well MaxiSorp™ flat-bottom plate (Nunc) was coated with 4 μg/ml of Tie2-Fc (R&D systems) or BSA (Sigma). Then, the plate was washed five times with 0.05% (v/v) Tween-20-containing PBS (Phosphate Buffer Saline) and blocked with 1% (v/v) BSA (Bovine serum albumin; Sigma)-containing PBS at a room temperature for 2 hours. 0.25 μg/ml of Ang2 and 2 μg/ml of 10D6 antibody were added to each well of the plate, which was allowed to react at a room temperature for 2 hours and then washed five times with PBST. After that, an anti-mouse IgG antibody (Sigma) conjugated with HRP diluted in 1% (v/v) BSA-containing PBS at a ratio of 1:5,000 (v/v) was added in an amount of 100 μl to each well to react at a room temperature for 1 hour and then, the plate was washed five times with PBST. Lastly, 100 μl (microliter) of TMB substrate (Cell Signaling) was added to each well of the plate to induce color development for 3 min. and then, the reaction was ceased by the addition of 100 μl of Stop solution (Cell Signaling) and OD450 values were measured on a plate reader (Molecular Devices).
On the technique in general: ELISA stands for enzyme-linked immunosorbent assay.

Assay [2] concerns the target T2, recombinant hAng2 (C-His, R&D Systems) (human, UniProt O15123 19-496).
T2 construct: Bought protein (R&D Systems), captured on an anti-His chip in SPR; also called human Ang2 protein; Angiopoietin-2; not shown: C-terminal His tag
T2 sequence: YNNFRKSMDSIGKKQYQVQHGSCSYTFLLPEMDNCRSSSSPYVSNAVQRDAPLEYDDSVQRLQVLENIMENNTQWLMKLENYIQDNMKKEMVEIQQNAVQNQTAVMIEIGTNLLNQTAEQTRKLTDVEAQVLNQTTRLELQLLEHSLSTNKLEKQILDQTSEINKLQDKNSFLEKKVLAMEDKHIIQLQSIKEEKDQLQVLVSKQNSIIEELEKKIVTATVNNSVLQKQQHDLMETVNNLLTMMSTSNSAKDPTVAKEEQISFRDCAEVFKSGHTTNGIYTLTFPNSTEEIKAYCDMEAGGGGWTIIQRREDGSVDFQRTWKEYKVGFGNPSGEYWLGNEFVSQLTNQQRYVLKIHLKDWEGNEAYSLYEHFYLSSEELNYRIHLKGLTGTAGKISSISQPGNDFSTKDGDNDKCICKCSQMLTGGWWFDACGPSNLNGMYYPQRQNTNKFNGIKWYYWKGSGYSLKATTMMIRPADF
The assay can be described thus: SPR, BIAcore T100; hAng2 (C-His) captured on anti-His CM5 chip, antibody flowed. How it is done:
The binding affinity (KD values) of the antibodies to human Ang2 protein was measured by an SPR method using a BIAcore T100 (GE Healthcare). 25 μg/ml anti-His antibody was immobilized on a CM5 sensor chip (GE healthcare) using a pH 5.0 acetate solution and an amine coupling kit (GE Healthcare). 6 μg/ml of a recombinant hAng2 (C-His, R&D Systems) protein was flowed onto the chip to be captured at 100 to 200 RU levels.
In general terms: Surface plasmon resonance follows binding to a sensor surface in real time, without labels.

Assay [3] has as its target T1, BSA. The assay can be described thus: Complex ELISA: BSA coated (4 µg/ml), 10D6 2 µg/ml, anti-mouse IgG-HRP, OD450. How it is done: as §1
Assay [4] has as its target T3, hTie2-Fc (R&D Systems) (human, UniProt Q02763 23-745).
T3 construct: Bought fusion protein, coated on the plate at 4 ug/ml; also called hTie-2/Fc fusion protein; not shown: Fc of human IgG1
The assay can be described thus: Complex ELISA: Tie2-Fc coated (4 µg/ml), 10D6 2 µg/ml without Ang2, anti-mouse IgG-HRP, OD450. Here is the method:
as §1

T1 sequence (P02769 25-607 limits assumed): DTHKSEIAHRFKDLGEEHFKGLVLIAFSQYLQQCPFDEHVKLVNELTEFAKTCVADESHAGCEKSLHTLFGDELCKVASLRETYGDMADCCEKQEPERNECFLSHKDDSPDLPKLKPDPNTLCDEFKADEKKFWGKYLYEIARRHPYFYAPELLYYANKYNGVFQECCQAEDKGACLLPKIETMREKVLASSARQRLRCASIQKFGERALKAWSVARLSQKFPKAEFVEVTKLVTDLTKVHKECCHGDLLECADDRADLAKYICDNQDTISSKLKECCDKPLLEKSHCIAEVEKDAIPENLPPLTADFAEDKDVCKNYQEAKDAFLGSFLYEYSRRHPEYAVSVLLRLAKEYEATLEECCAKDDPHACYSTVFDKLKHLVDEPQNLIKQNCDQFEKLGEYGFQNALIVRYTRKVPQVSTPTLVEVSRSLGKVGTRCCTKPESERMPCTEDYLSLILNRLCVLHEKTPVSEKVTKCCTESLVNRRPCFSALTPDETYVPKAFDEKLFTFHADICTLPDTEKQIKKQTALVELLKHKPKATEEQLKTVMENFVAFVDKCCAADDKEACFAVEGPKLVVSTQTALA
T3 sequence (Q02763 23-745 limits assumed): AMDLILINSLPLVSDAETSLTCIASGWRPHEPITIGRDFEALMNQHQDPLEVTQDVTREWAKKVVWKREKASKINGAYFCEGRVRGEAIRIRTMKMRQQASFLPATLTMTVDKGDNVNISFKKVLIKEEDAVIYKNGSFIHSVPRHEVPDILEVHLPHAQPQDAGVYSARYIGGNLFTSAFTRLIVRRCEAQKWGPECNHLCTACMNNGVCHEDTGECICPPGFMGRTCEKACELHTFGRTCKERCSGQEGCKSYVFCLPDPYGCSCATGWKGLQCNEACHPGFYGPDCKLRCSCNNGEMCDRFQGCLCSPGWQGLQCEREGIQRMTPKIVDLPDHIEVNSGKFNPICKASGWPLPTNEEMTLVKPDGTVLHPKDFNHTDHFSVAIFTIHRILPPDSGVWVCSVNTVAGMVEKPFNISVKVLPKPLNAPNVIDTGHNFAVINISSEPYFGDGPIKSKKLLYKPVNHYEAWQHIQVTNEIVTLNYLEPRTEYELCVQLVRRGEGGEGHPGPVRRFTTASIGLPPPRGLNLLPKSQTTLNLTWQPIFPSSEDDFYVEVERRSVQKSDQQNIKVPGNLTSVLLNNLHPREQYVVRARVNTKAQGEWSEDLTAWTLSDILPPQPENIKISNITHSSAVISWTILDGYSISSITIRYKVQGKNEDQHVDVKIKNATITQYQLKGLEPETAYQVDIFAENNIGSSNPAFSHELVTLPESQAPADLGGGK

B1: FLAG-tagged hAng2 (ligand)
chain: YNNFRKSMDSIGKKQYQVQHGSCSYTFLLPEMDNCRSSSSPYVSNAVQRDAPLEYDDSVQRLQVLENIMENNTQWLMKLENYIQDNMKKEMVEIQQNAVQNQTAVMIEIGTNLLNQTAEQTRKLTDVEAQVLNQTTRLELQLLEHSLSTNKLEKQILDQTSEINKLQDKNSFLEKKVLAMEDKHIIQLQSIKEEKDQLQVLVSKQNSIIEELEKKIVTATVNNSVLQKQQHDLMETVNNLLTMMSTSNSAKDPTVAKEEQISFRDCAEVFKSGHTTNGIYTLTFPNSTEEIKAYCDMEAGGGGWTIIQRREDGSVDFQRTWKEYKVGFGNPSGEYWLGNEFVSQLTNQQRYVLKIHLKDWEGNEAYSLYEHFYLSSEELNYRIHLKGLTGTAGKISSISQPGNDFSTKDGDNDKCICKCSQMLTGGWWFDACGPSNLNGMYYPQRQNTNKFNGIKWYYWKGSGYSLKATTMMIRPADF
notes: not shown: FLAG tag
On to B1, for which the binding result in assay [1] is “no binding (tested: 0.25 µg/ml)”.

B2: h10D6-OPTI-65 (antibody, V domains shown)
VH: QVQLQESGPGLVKPSETLSLTCAVSGYSITSDYAWNWIRQPPGKGLEWMGKISYSGKTDYNPSLKSRSTISRDTSKNQFSLKLSSVTAADTAVYYCARGNFEGAMDYWGQGTLVTVSS
VL: DIQMTQSPSSLSASVGDRVTITCKASQSVSNDVAWYQQKPGKAPKLLIYYASIPYPGVPSRFSGSGSGTDFTLTISSLQPEDFATYYCQQDYSSPWTFGQGTKLEIK
notes: also called HU2-6.6 / 10D6_VL-Hu1-2.4
In the case of B2, in assay [2], the Kd worked out at 0.0454 nM and the kon was determined as 496000 M⁻¹ s⁻¹.

B3: SAIT-ANG2-AB-m10D6 (antibody, V domains shown)
VH: DVQLQESGPDLVKPSQSLSLTCTVTGYSITSDYAWNWIRQFPGNKLEWMGYINYSGNTDYNPSLKSRSSITRDTSKNQFFLQLNSVTTGDTATYYCARGNFEGAMDYWGQGTSVTVSS
VL: SIVMTQTPKFLLVSAGDRVTITCKASQSVSNDVAWYQQKPGQSPKLLIYYASNRYPGVPDRFTGSGYGTDFTFTISTVQAEDLAVYFCQQDYSSPWTFGGGTKLEIK
notes: Mouse monoclonal antibody from hybridoma KCLRF-BP-00295, purified on Protein G and detected with anti-mouse IgG; the mouse constant regions are not; also called mouse antibody 10D6; mouse anti-Ang2 antibody 10D6
For the molecule B3, the binding result in assay [3] and in assay [4] was “no binding (tested: 2 µg/ml)” in each case.
